Reference: patent US20210079074A1 (Alector, published 2021)
Positions count from the first letter of the chain named. Where two headings read alike, the source gives them in different places.

T1: FcγRIIa receptor (H131 variant) (UniProt P12318 34-317, limits assumed)
T1 sequence (looked up): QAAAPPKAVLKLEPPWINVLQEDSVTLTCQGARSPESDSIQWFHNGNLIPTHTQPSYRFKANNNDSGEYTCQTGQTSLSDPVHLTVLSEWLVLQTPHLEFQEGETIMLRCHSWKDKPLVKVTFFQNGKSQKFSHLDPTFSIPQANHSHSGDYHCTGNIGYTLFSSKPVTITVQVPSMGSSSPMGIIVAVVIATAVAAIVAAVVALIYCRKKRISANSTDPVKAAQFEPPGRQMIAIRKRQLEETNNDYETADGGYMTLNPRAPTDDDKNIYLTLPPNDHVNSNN

T2: huMS4A4A-ECL2 free-peptide (human)
T2 construct: synthetic, free or BSA-conjugated, coated on the plate; also called human MS4A4A ECL2 peptide; huMS4A4A-ELC2 free-peptide
T2 peptide: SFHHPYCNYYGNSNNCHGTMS

B1: anti-MS4A4A antibody 4A-313 wildtype (WT) huIgG1 (antibody)
heavy: not shown
light: EIVLTQSPATLSLSPGERATLSCRASESVDNYGVSRMNWYQQKPGQAPRLLIYGASNQGSGIPARFSGSGSGTDFTLTISSLEPEDFAVYYCQQSKEVPPTFGGGTKVEIKRTVAAPSVFIFPPSDEQLKSGTASVVCLLNNFYPREAKVQWKVDNALQSGNSQESVTEQDSKDSTYSLSSTLTLSKADYEKHKVYACEVTHQGLSSPVTKSFNRGEC
notes: also called 4A-313 WT huIgG1; 4A-313.WT
B2: anti-MS4A4A antibody 4A-18 (antibody, V domains shown)
VH: QVQLQQPGTELVKPGASVKLSCKASGYTFTSYWIHWVKQRPGQGLEWIGNINPTNGGTNYNERFKSKATLTVDKSSSTAYMQLSSLTSEDSAVYYCARAYYYGSSLFAYWGQGTLVTVSS
VL: DIVMTQSQKFMSTTVGDRVSITCKASQNVGTAVAWSQQKPGQSPKLLIYSASYRHTGVPDRFTGSGSGTDFTLTITNMQSEDLADYFCQQYSTYPWTFGGGTKLEIK
notes: murine parental; tested as mouse IgG1 or as human IgG1 Fc chimera (hFc), told under assay; also called 4A-18.hFc
B3: anti-MS4A4A antibody 4A-214 (antibody, V domains shown)
VH: EVKLEESGGGLVQPGRSMKLSCVASGFTFSNYWMNWVRQSPEKGLEWVAEIRLKSNNYATHYAESVKGRFTISRDDSKSSVYLQMNNLRAEDTGIYYCSSMIIVDYWGQGTTVTVSS
VL: DIVLTQSPASLTVSLGQRATISCRASQSVSSSTYSYLHWYQQRPGQPPKLLIKYASNLESGVPARFSGSGSGTVFTLNIHPVEEEDTATYYCQHSWEIPLTFGAGTKLEMK
notes: murine; mFc = murine Fc; also called 4A-214.mFc
B4: anti-MS4A4A antibody 4A-350 (antibody, V domains shown)
VH: QVQLVQSGSELKKPGASVKVSCKASGYIFTSYGLSWVRQAPGQGLEWMGWINTYSGVPTYAQGFTGRFVFSLDTSVSTAYLQISSLKAEDTAVYYCARTLADYWGQGTLVTVSS
VL: DVVMTQSPLSLPVTLGQPASISCKSSQSLLYSDGKTYLSWFQQRPGQSPRRLIYLVSKLDSGVPDRFSGSGSGTDFTLKISRVEAEDVGVYYCWQGIDFHQTFGGGTKVEIK
notes: full human IgG
B5: anti-MS4A4A antibody 4A-332 (antibody, human IgG1, V domains shown)
VH: B4 VH with T99S, A101V
VL: B4 VL
notes: humanized 4A-21; human IgG1/kappa
B6: anti-MS4A4A antibody 4A-351 (antibody, V domains shown)
VH: B4 VH
VL: B4 VL with Q27R
notes: full human IgG
B7: anti-MS4A4A antibody 4A-358 (antibody, V domains shown)
VH: B4 VH
VL: B4 VL with D98R
notes: full human IgG
B8: anti-MS4A4A antibody 4A-360 (antibody, V domains shown)
VH: B4 VH
VL: B4 VL with S26G, K58R
notes: full human IgG
B9: anti-MS4A4A antibody 4A-362 (antibody, V domains shown)
VH: B4 VH
VL: B4 VL with K58R
notes: full human IgG
B10: anti-MS4A4A antibody 4A-369 (antibody, V domains shown)
VH: B4 VH with I28T, V37I, L100M, A101V
VL: B4 VL with D98R
notes: full human IgG
B11: anti-MS4A4A antibody 4A-373 (antibody, V domains shown)
VH: B4 VH with A101V
VL: B4 VL with Q27R
notes: full human IgG
B12: anti-MS4A4A antibody 4A-376 (antibody, V domains shown)
VH: B4 VH with T99S, L100M
VL: B4 VL with Q27R
notes: full human IgG
B13: anti-MS4A4A antibody 4A-302 (antibody, human IgG1, V domains shown)
VH: QVQLVQSGAEVKKPGASVKVSCKASGYTFTNYWMQWVRQAPGQGLEWMGATHPGHGDTRYAQKFQGRVTMTRDTSTSTVYMELSSLRSEDTAVYYCAREEVYYGFRSYWYFDVWGRGTLVTVSS
VL: EIVLTQSPATLSLSPGERATLSCRASESVDNYGVSFMNWYQQKPGQAPRLLIYGASNQGSGIPARFSGSGSGTDFTLTISSLEPEDFAVYYCQQSKEVPPTFGGGTKVEIK
notes: human IgG1/kappa
B14: anti-MS4A4A antibody 4A-314 (antibody, V domains shown)
VH: B13 VH with A50T, H52L
VL: B13 VL with F36R
notes: full human IgG

Key:
[1] = biological target: FcγRIIIa receptor (V158 variant) (UniProt P08637 17-254); experiment: cell-based or functional assay
Sequence of FcγRIIIa receptor (V158 variant) (P08637 other isoform, or with tags, fused parts or gaps mutant limits assumed): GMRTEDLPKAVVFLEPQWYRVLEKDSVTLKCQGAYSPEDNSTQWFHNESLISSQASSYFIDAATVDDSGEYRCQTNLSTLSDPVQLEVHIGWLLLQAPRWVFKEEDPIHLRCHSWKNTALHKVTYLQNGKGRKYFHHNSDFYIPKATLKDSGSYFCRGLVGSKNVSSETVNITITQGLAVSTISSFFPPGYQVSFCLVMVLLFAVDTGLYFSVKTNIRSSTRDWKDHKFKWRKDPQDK

[2] = biological target: T3, recombinant MS4A4A soluble polypeptide JS5; experiment: ELISA, 1 ug/ml antibody
T3 construct: also called JS5.His
Procedure: (§1) Anti-MS4A4A antibodies of the present disclosure were tested for their ability to bind to the different recombinant MS4A4A soluble polypeptides, as described in Example 2, as follows. Nucleic acid encoding the VH and VL domains of humanized anti-MS4A4A antibodies of the present disclosure were cloned into pcDNA3.4 vector which contains either the human IgG1 heavy chain constant domain or human kappa constant domain. The humanized anti-MS4A4A antibodies were expressed in Expi293 cells and were purified by Mab select antibody purification resin (GE Healthcare Life Science, cat#17519902) following the manufacture's protocol. ELISA was performed to measure binding of anti-MS4A4A antibodies of the present disclosure the recombinant MS4A4A soluble polypeptides. 1 μg/ml biotinylated antigens were preincubated on the streptavidin-coated ELISA plates (Thermo Scientific, cat#PI15120) for 1 hour. Plates were washed 3 times, followed by the addition of antibodies (1 μg/ml, 0.33 μg/ml, and 0.11 μg/ml antibodies. Plates were incubated at room temperature with shaking for 1 hr, washed 3 times, then 1/2500 dilution of HRP conjugates goat anti human kappa antibodies added (SigmaAldrich cat#. A7164-1ML).

[3] = biological target: T1, FcγRIIa receptor (H131 variant); experiment: cell-based or functional assay
[4] = biological target: T3, recombinant MS4A4A soluble polypeptide …; experiment: ELISA, 0.11 ug/ml antibody
Procedure: as §1

human MS4A4A [5] = biological target: T4, human MS4A4A (human, UniProt Q96JQ5 1-239); experiment: FACS, U937-huMS4A4A, 5 ug/ml
Procedure: (§2) Anti-MS4A4A antibodies tested were either mouse IgGs purified from hybridoma supernatant or human IgG1 Fc chimeras produced recombinantly in Expi293 cells. Affinity binding to cells was determined as follows. Briefly, cells were harvested, washed, and labeled with Aqua Live/Dead for viability discrimination. After a wash with PBS, 2×10\hat{ }4 cells were aliquoted per well in 96-well U-bottom plates and incubated with 50 μL of purified anti-MS4A4A antibody at various concentrations (3× dilutions starting at 10 μg/mL) in FACS buffer (PBS+2% FBS+1 mM EDTA). After this primary incubation, the supernatant was removed via centrifugation, washed 2× with 150 μL of ice-cold FACS buffer, and incubated with the appropriate secondary antibody on ice for 15 minutes. Following the secondary antibody incubation, the cells were again washed 2× with ice-cold FACS buffer and resuspended in a final volume of 200 μL of FACS buffer. Flow cytometry analysis was performed on a FACSCanto system (BD Biosciences). Binding data was expressed as Median Fluorescent Intensity (MFI).
(§3) These experiments were performed using anti-MS4A4A antibodies at a concentration of 5 μg/ml and were assayed for cell binding by flow cytometry.

[6] = biological target: T3, recombinant MS4A4A soluble polypeptide …; experiment: ELISA, 0.33 ug/ml antibody
Procedure: as §1

[7] = biological target: T3, recombinant MS4A4A soluble polypeptide …; experiment: ELISA, biotin-antigen on streptavidin plate
Procedure: as §1

[8] = biological target: T5, recombinant MS4A4A soluble polypeptide JS6; experiment: ELISA, biotin-antigen on streptavidin plate
T5 construct: also called JS6.His
Procedure: as §1

[9] = biological target: T6, negative control polypeptide JS4; experiment: ELISA, biotin-antigen on streptavidin plate
T6 construct: negative control for JS1; also called JS4.His
Procedure: as §1

[10] = biological target: T7, negative control polypeptide JS10; experiment: ELISA, biotin-antigen on streptavidin plate
T7 construct: negative control for JS5 and JS6; also called JS10.His
Procedure: as §1

[11] = biological target: T8, recombinant MS4A4A soluble polypeptide JS1; experiment: ELISA, biotin-antigen on streptavidin plate
T8 construct: also called JS1.His; loop grafted antigen
Procedure: as §1

human MS4A4A [12] = biological target: T4, human MS4A4A; experiment: FACS, U937-huMS4A4A, 5 ug/ml; remark: listed apart in the source
Procedure: as §2, §3

[13] = biological target: T2, huMS4A4A-ECL2 free-peptide; experiment: peptide ELISA, murine antibody
Procedure: Coated plates were then blocked with ELISA diluent (PBS+0.5% BSA+0.05% Tween20) for 1-hour, washed 3×300 μL in PBST (PBS+0.05% Tween20, Thermo Cat#28352), and then the antibodies were added to the plate ([…]). After 30 mins incubation (room temperature, with shaking), the plates were washed 3×300 μL in PBST. […] After a final set of washes (3×300 μL in PBST), 50 μL of TMB substrate (BioFx Cat#TMBW-1000-01) was added and the reaction was then quenched after 5-10 mins with 50 μL of stop solution (BioFx Cat#BSTP-1000-01). The quenched reaction wells were detected for absorbance at […] with a BioTek Synergy Microplate Reader using GENS 2.04 software.

[14] = biological target: T3, recombinant MS4A4A soluble polypeptide …; experiment: ELISA, 0.4 ug/ml antibody
[15] = biological target: T8, recombinant MS4A4A soluble polypeptide …; experiment: ELISA, 1 ug/ml antibody
Procedure: as §1

Row | Binder | ELISA OD [2] | ELISA OD [4] | MFI (human MS4A4A [5]) | ELISA OD [6] | OD450 [14] | further results
1 | B1 | 1.26 | 0.741 | 41800 | 1.05 |  | luminescence, ADCC reporter, 3.048316 ng/mL [1]: 346; luminescence, ADCC reporter, 9.144947 ng/mL [1]: 367; luminescence, ADCC reporter, 27.43484 ng/mL [1]: 473; luminescence, ADCC reporter, 82.30453 ng/mL [1]: 839; luminescence, ADCC reporter, 246.9136 ng/mL [1]: 2060; luminescence, ADCC reporter, 740.7407 ng/mL [1]: 4350; luminescence, ADCC reporter, 2,222.222 ng/mL [1]: 5130; luminescence, ADCC reporter, 6,666.667 ng/mL [1]: 4890; luminescence, ADCC reporter, 20,000 ng/mL [1]: 4400; luminescence, ADCP reporter, 3.048316 ng/mL [3]: 48; luminescence, ADCP reporter, 9.144947 ng/mL [3]: 54; luminescence, ADCP reporter, 27.43484 ng/mL [3]: 80; luminescence, ADCP reporter, 82.30453 ng/mL [3]: 64; luminescence, ADCP reporter, 246.9136 ng/mL [3]: 98; luminescence, ADCP reporter, 740.7407 ng/mL [3]: 85; luminescence, ADCP reporter, 2,222.222 ng/mL [3]: 128; luminescence, ADCP reporter, 6,666.667 ng/mL [3]: 403; luminescence, ADCP reporter, 20,000 ng/mL [3]: 455
2 | B2 |  |  |  |  |  | ELISA OD [7]: 0.099; ELISA OD [8]: 0.105; ELISA OD [9]: 0.098; ELISA OD [10]: 0.092; ELISA OD [11]: 0.146; MFI (human MS4A4A [12]): 382
3 | B3 |  |  |  |  |  | ELISA OD [7]: 1.62; ELISA OD [8]: 1.71; ELISA OD [9]: 0.11; ELISA OD [10]: 0.086; ELISA OD [11]: 1.74; binding result [13]: binds
4 | B4 |  |  | 11600 |  | 0.939 | 
5 | B5 | 0.997 | 0.677 | 8820 | 0.851 | 0.821 | OD450 [15]: 1.91; MFI (human MS4A4A [12]): 324
6 | B6 | 0.953 | 0.816 | 12200 | 0.898 | 0.99 | 
7 | B7 |  |  | 12100 |  | 0.901 | 
8 | B8 |  |  | 10300 |  | 0.797 | 
9 | B9 |  |  | 10000 |  | 0.908 | 
10 | B10 |  |  | 10100 |  | 0.852 | 
11 | B11 |  |  | 11900 |  | 0.907 | 
12 | B12 | 1.04 | 0.83 | 16700 | 1.03 | 0.977 | 
13 | B13 | 0.128 | 0.091 | 24400 | 0.103 |  | OD450 [15]: 0.127; MFI (human MS4A4A [12]): 113
14 | B14 | 1.14 | 0.399 | 15300 | 0.682 |  | 
